Measured values published in article PMC9765618, “PML Body Component Sp100A Is a Cytosolic Responder to IFN and Activator of Antiviral ISGs” (mBio, 2022).

Target: T1, bacterially purified His-tagged hemagglutinin (HA)-PKM2 (human, UniProt P14618 1-531)
T1 construct: pyruvate kinase 2 (PKM2), human; also called His-HA-PKM2
Experiment: pull-down
Settings: both partners purified

T1 sequence (P14618 whole entry): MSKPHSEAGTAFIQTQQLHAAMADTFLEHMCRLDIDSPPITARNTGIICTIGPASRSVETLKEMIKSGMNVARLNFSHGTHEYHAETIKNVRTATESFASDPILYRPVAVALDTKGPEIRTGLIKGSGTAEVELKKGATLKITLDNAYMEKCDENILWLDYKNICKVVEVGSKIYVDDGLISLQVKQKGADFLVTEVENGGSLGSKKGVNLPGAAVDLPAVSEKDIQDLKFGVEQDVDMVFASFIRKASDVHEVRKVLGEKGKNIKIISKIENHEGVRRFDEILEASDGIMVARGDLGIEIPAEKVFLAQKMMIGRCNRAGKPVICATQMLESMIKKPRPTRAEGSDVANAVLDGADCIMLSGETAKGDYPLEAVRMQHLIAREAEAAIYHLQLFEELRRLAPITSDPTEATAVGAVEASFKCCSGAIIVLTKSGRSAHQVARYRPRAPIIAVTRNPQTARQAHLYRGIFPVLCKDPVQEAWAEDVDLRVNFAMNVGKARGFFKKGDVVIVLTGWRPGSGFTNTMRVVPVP

B1: bacterially purified GST-tagged Sp100A (natural protein)
chain: not shown
notes: Sp100A, isoform A of human Sp100; also called GST-Sp100A
  binding result: binds
